From publication PMC5016095 (2016) come the findings set out here.

One experiment deals with α-synuclein (oligomeric) (Homo sapiens, UniProt P37840, oligomeric, pseudo-wildtype tryptophan mutant). The experiment can be described thus: fluorescence spectroscopy.
A further experiment deals with α-synuclein S129E (Homo sapiens, UniProt P37840). The experiment can be described thus: fluorescence spectroscopy.

B1: TOM20 C-terminal cytosolic fragment (protein)
chain: DRKRRSDPNFKNRLRERRKKQKLAKERAGLSKLPDLKDAEAVQKFFLEEIQLGEELLAQGDYEKGVDHLTNAIAVCGQPQQLLQVLQQTLPPPVFQMLLTKLPTISQRIVSAQSLAEDDVE
As to B1, the Kd with α-synuclein (oligomeric) and with α-synuclein S129E was ~5 µM in each case.
